T1: LARP6 La-module (Homo sapiens, UniProt Q9BRS8 70-300)
T1 sequence: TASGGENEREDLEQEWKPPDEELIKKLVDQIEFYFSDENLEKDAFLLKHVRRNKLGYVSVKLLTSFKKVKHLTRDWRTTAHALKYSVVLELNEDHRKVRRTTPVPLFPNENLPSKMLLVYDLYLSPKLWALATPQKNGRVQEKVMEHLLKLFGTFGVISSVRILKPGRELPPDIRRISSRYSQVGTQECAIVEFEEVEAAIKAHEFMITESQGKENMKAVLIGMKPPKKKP

T2: LARP6 NTD (Homo sapiens, UniProt Q9BRS8 2-300)
T2 sequence: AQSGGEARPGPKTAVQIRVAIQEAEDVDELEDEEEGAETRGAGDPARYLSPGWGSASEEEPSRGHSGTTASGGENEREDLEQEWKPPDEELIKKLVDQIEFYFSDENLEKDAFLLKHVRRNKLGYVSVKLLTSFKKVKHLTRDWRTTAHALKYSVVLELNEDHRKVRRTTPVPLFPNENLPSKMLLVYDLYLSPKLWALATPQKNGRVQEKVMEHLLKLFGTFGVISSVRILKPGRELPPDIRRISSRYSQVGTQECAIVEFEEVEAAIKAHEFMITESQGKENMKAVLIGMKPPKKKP

T3: LARP6 NTR (Homo sapiens, UniProt Q9BRS8 2-83)
T3 sequence: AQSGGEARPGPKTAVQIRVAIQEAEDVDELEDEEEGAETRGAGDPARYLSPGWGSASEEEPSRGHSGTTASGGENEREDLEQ


How the values were obtained:
LARP6 La-module [1] = target: T1, LARP6 La-module; experiment: BLI; Mg; 20 mM Tris-HCl pH 7.5, 100 mM KCl, 0.5 mM MgCl2, 1 mM TCEP, 0.05% Tween-20, 25 C; steady state, 1:1 fit; conditions: label: 5' biotin
LARP6 NTD [2] = target: T2, LARP6 NTD; experiment: as above; conditions: label: 5' biotin
LARP6 La-module [3] = target: T1, LARP6 La-module; experiment: BLI; 0.5 mM Mg2+; BLI: 20 mM Tris-HCl pH 7.5, 100 mM KCl, 0.5 mM MgCl2, 1 mM TCEP, 0.05% Tween-20, 25 °C; MST, NMR and SAXS buffers not in the material; conditions: protein: recombinant; tags: His tag cleaved by TEV; label: 5' biotin; single strand
LARP6 NTD [4] = target: T2, LARP6 NTD; experiment: as above; conditions: protein: recombinant; tags: 6xHis-SUMO-TEV tag, cleaved; label: 5' biotin; single strand
LARP6 La-module [5] = target: T1, LARP6 La-module; experiment: MST; BLI: 20 mM Tris-HCl pH 7.5, 100 mM KCl, 0.5 mM MgCl2, 1 mM TCEP, 0.05% Tween-20, 25 °C; MST, NMR and SAXS buffers not in the material; conditions: protein: recombinant; tags: His tag cleaved by TEV; label: 5' 6-FAM; single strand
LARP6 NTR [6] = target: T3, LARP6 NTR; experiment: as above; conditions: protein: recombinant; tags: 6xHis-SUMO-TEV tag, cleaved; label: 5' 6-FAM; single strand
LARP6 NTD [7] = target: T2, LARP6 NTD; experiment: as above; conditions: protein: recombinant; tags: 6xHis-SUMO-TEV tag, cleaved; label: 5' 6-FAM; single strand
LARP6 NTR [8] = target: T3, LARP6 NTR; experiment: BLI; 0.5 mM Mg2+; BLI: 20 mM Tris-HCl pH 7.5, 100 mM KCl, 0.5 mM MgCl2, 1 mM TCEP, 0.05% Tween-20, 25 °C; MST, NMR and SAXS buffers not in the material; conditions: protein: recombinant; tags: 6xHis-SUMO-TEV tag, cleaved; label: 5' biotin; single strand

Binder	Kd (LARP6 La-module [1]) [nM]	Kd (LARP6 NTD [2]) [nM]	Kd (LARP6 La-module [3]) [nM]	Kd (LARP6 NTD [4]) [nM]	Kd (LARP6 La-module [5]) [nM]	Kd (LARP6 NTR [6]) [nM]	Kd (LARP6 NTD [7]) [nM]	Kd (LARP6 NTR [8]) [nM]
GGAAAUGGGCAGACUGAACCAGUCC (ssRNA) [CTNNA1 P2]	0.9 ± 0.05	17 ± 1.2	0.91 ± 0.05					
GUUUAAGUUGAUUAAAAAUGCUUUU (ssRNA) [CTNNA1 D2]	6.9 ± 0.6	360 ± 57		367 ± 57				
ACUGUUCGUCACUCAAAUGAAUUUG (ssRNA) [CTNNA1 U1]	14 ± 0.8			587 ± 29				
CUAAAUACAACACUGAUACUAGAUU (ssRNA) [CTNNA1 P1 (5' 6-FAM)]					5.8	8300	99	
AGGUGGUGAAUUUUCCAAGAACAUA (ssRNA) [CTNNA1 D1]	2 ± 0.1	87 ± 4		85 ± 4				
CCCUCGGGGCUCCUGAAUAUCAGUC (ssRNA) [CTNNA1 U2]	4.3 ± 0.1	180 ± 5	4.4 ± 0.1	183 ± 5				
CUAAAUACAACACUGAUACUAGAUU (ssRNA) [CTNNA1 P1]	1.3 ± 0.4	58 ± 5						
CUAAAUACAACACUGAUACUAGAUU (ssRNA) [CTNNA1 P1 (5' biotin)]			1.5 ± 0.4	61 ± 5				1200 ± 500

Reference: article PMC13031558, “An intrinsically disordered region mediates RNA-binding selectivity and cellular activities of LARP6”
